Measurements from patent US7772181B2, “Personal care compositions comprising modified variant Bowman Birk Protease Inhibitors” (Danisco US Inc., priority 2008, dated 2010).
Marks after values point to notes of the source that are not given here.

What was measured:
[1] = biological target: T1, bovine pancreatic trypsin (Bos taurus, UniProt P00760); test: Shake flask screen: trypsin inhibition after growth, 2-mercaptoethanol activation and acid/heat treatment; assay type: biochemical; settings: for BBIt-AV yield after acid/heat treatment relative to unmodified BBIt-AV: activated with 2-mercaptoethanol
T1 construct: purchased Worthington (Worthington Biochemical Corp.)
T1 sequence (P00760 24-246): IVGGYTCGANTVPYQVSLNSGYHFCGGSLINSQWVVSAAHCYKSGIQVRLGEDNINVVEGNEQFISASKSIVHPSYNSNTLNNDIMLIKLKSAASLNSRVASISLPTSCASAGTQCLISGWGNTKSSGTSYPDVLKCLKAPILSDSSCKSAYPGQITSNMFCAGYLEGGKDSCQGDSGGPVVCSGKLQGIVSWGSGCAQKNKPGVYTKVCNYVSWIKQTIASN
Protocol: To increase expression, the gene copy of the selected clones was amplified by sequentially streaking colonies on Luria agar plates with 25 μg/ml chloramphenicol until the growth rate was similar to growth on Luria agar plates without chloramphenicol. Cultures of the selected variants and controls were grown in 3 ml Luria broth with 25 μg/ml chloramphenicol in 15 ml tubes for ˜10 h. These cultures (30 μl) were then used to inoculate 30 ml of MBD medium in 250 ml baffled shake flasks and grown at 37° C. and 225 rpm for ˜60 h.
For selection of the variants with the best yields, the culture broths were processed as follows. The broth was first activated by mixing 20 ml of broth with 20 ml of 0.25 M glycine buffer (pH 9.3) and the pH was adjusted to 9.0 with 50% NaOH. Then, 2-mercaptoethanol was added to the diluted cultures to a final concentration of 2 mM and the cultures were incubated overnight at room temperature with gentle shaking. The BBIt-AV moiety was then cleaved from the fusion protein by acid/heat treatment, which was accomplished by first adjusting the pH of the activated broth to pH 1.9-2.0 with sulfuric acid, and followed by incubation at 60° C. for 16 hours, with shaking. The BBIt-AV-BCE fusion protein and the BCE catalytic domain are not soluble at pH 2, whereas the free BBI species is soluble. After the cleavage reaction, the insoluble material was removed by centrifugation (5 min. at 3,000 rpm) and the supernatant was analyzed for trypsin inhibitory activity as described above. The BBI activity was also determined for the starting material and for the samples taken after activation. The BCE activity of the starting material was also determined as described above. The BBIt-AV:BCE activity ratios were then calculated for each step in process. The modified BBIt-AVs produced at the highest yields following the acid/heat treatment were selected for further study.

[2] = biological target: T1, bovine pancreatic trypsin; test: BBIt-AV:BCE activity ratio, microtiter plate screens (primary, quadruplicate secondary); assay type: biochemical; settings: single substitution in BBIt-AV, in the presence of reducing agent
Protocol: The cultures in each master plate were thawed and a pin replicator was used to inoculate a new sterile microtiter plate containing 150 μl of Luria broth with 5 μg/ml chloramphenicol in each well. The plates were grown for ˜10 hrs in a humidified and aerated box as described above. For controls, the cultures in two wells were replaced with BBI and BBI-AV cultures that had been grown concurrently in 15 ml culture tubes (5 ml of Luria broth with 5 μg/ml chloramphenicol). After the cultures were grown, the plate was used to inoculate two duplicate 96-well filter plates (Millipore, MSGV2210) containing 150 μl of MBD medium (Vogtentanz et al., 2007) with 5 μg/ml chloramphenicol in each well by using a pin replicator. The duplicate plates were grown for ˜14 hours (as above, with plastic spacers placed between the stacked plates to allow for efficient air flow around the plates) and then 2-mecaptoethanol was added to each well in one of the plates to a final concentration of 2 mM. The plates were then grown for an additional ˜46 hours. The 96-well filter plates containing the culture broth (with or without added 2-mecaptoethanol) were then assayed for BBI and BCE activity.
Libraries were analyzed using dilutions of cultures grown in 96-well plates. Typically, the culture broth from each well was diluted (200 fold) in Assay Buffer (100 mM Tris pH 8.6, 0.005% Tween 80) and transferred to a second microtiter plate (CoStar 9017, Corning, Inc., Corning, N.Y.). Then, 20 μl of the diluted samples were transferred to a third microtiter plate. A standard curve was created by adding 20, 10, 5 or 2.5 μl of the diluted sBBI (SEQ ID NO:13) control culture to empty wells. Then, 80 μL of 50 ng/ml trypsin (bovine pancreatic trypsin, Worthington Biochemical Corp., Lakewood, N.J.) (prepared from a 1 mg/mL stock solution diluted into Assay Buffer) was added to each well of the plate. The reactions were mixed and incubated 15 min at room temperature. After the incubation, 100 μL of 0.5 mg/ml trypsin substrate (succinyl-Ala-Ala-Pro-Arg-para-nitroanilide, Bachem Bioscience, Inc., King of Prussia, Pa.), diluted in Assay Buffer from a 100 mg/ml solution in DMSO, was added to each well, mixed, and the absorbance at 405 nm was monitored for 15 min, with 1 time point recorded every 12 sec using a Spectra Max 250 (Molecular Devices). The data points were used to determine the rate for each reaction. The standard curve was generated by plotting the reaction rate versus the BBI volume and was fitted to a four-parameter equation. All data fitting was done using software supplied by the manufacturer (Molecular Devices Corp., Sunnyvale, Calif.). The activity of each BBIt-AV variant was calculated from the standard curve. Thus, the activities of all modified variant proteins were determined relative to the activity in the sBBI control (BBI-WT) culture.
The concentration of BCE was determined by an activity assay using purified BCE as a standard as described above and by (Vogtentanz et al. 2007). For the analysis of libraries grown in 96-well microtiter plates, 20 μl of culture broth were transferred to each well of a new microtiter plate. A standard curve was created by adding 20, 10, 5 or 2.5 μl of the diluted BBI-WT control culture to these empty wells. Then, 180 μl of the BCE substrate (0.25 μg/ml in Assay Buffer), 4-nitrophenyl β-D-cellobioside (Sigma, St. Louis, Mo.), was added to the plate. The plate was mixed and the absorbance at 405 nm monitored for 15 min, with 1 time point recorded every 12 s using a Spectra Max 250 (Molecular Devices Corp., Sunnyvale, Calif.). The data points were used to determine the rate for each reaction. The standard curve was generated by plotting rate versus culture volume and was fit to a quadratic curve. The BCE concentration in each variant culture was determined relative to the standard control culture. […]

B1: M27A: BBIt-AV (SEQ ID NO:187) with single substitution M27A (protein)
chain: DDESSKPCCDQCACTKSNPPQCRCSDARLNSCHSACKSCACYNLYGWTCFCVDITDFCYEPCKPSE
modifications: synthetic BBIt-AV sequence
[1]
  yield after acid/heat treatment, better than V52L: about 40%
[1]; single substitutions in BBIt-AV
  activation level (BBIt-AV:BCE activity ratio after reducing agent): activate to similar levels

B2: S5P: BBIt-AV (SEQ ID NO:187) with single substitution S5P (protein)
chain: DDESPKPCCDQCACTKSNPPQCRCSDMRLNSCHSACKSCACYNLYGWTCFCVDITDFCYEPCKPSE
modifications: synthetic BBIt-AV sequence
[1]
  BBIt-AV yield after acid/heat treatment relative to unmodified BBIt-AV: improved yields after acid/heat treatment

B3: S4V: BBIt-AV (SEQ ID NO:187) with single substitution S4V (protein)
chain: DDEVSKPCCDQCACTKSNPPQCRCSDMRLNSCHSACKSCACYNLYGWTCFCVDITDFCYEPCKPSE
modifications: synthetic BBIt-AV sequence
[1]
  BBIt-AV yield after acid/heat treatment relative to unmodified BBIt-AV: improved yields after acid/heat treatment

B4: V52F: BBIt-AV (SEQ ID NO:187) with single substitution V52F (protein)
chain: DDESSKPCCDQCACTKSNPPQCRCSDMRLNSCHSACKSCACYNLYGWTCFCFDITDFCYEPCKPSE
modifications: synthetic BBIt-AV sequence
[2]
  relative activity of the amino acid substitution (BBI:BCE activity ratio vs BBIt-AV), amino acid present in BBItc-AV: F (+/−)

B5: T55N: BBIt-AV (SEQ ID NO:187) with single substitution T55N (protein)
chain: DDESSKPCCDQCACTKSNPPQCRCSDMRLNSCHSACKSCACYNLYGWTCFCVDINDFCYEPCKPSE
modifications: synthetic BBIt-AV sequence
[2]
  relative activity of the amino acid substitution (BBI:BCE activity ratio vs BBIt-AV), amino acid present in BBIsb3-AV: N (+/−)

B6: K37S: BBIt-AV (SEQ ID NO:187) with single substitution K37S (protein)
chain: DDESSKPCCDQCACTKSNPPQCRCSDMRLNSCHSACSSCACYNLYGWTCFCVDITDFCYEPCKPSE
modifications: synthetic BBIt-AV sequence
[2]
  relative activity of the amino acid substitution (BBI:BCE activity ratio vs BBIt-AV), amino acid present in BBIdb-AV: S (+/−)

B7: E60K: BBIt-AV (SEQ ID NO:187) with single substitution E60K (protein)
chain: DDESSKPCCDQCACTKSNPPQCRCSDMRLNSCHSACKSCACYNLYGWTCFCVDITDFCYKPCKPSE
modifications: synthetic BBIt-AV sequence
[2]
  relative activity of the amino acid substitution (BBI:BCE activity ratio vs BBIt-AV), amino acid present in BBIsb3-AV: K (+/−)
  relative activity of the amino acid substitution (BBI:BCE activity ratio vs BBIt-AV), amino acid present in BBItc-AV: K (+/−)

B8: T55K: BBIt-AV (SEQ ID NO:187) with single substitution T55K (protein)
chain: DDESSKPCCDQCACTKSNPPQCRCSDMRLNSCHSACKSCACYNLYGWTCFCVDIKDFCYEPCKPSE
modifications: synthetic BBIt-AV sequence
[2]
  relative activity of the amino acid substitution (BBI:BCE activity ratio vs BBIt-AV), amino acid present in BBIdb-AV: K (−)

B9: S38N: BBIt-AV (SEQ ID NO:187) with single substitution S38N (protein)
chain: DDESSKPCCDQCACTKSNPPQCRCSDMRLNSCHSACKNCACYNLYGWTCFCVDITDFCYEPCKPSE
modifications: synthetic BBIt-AV sequence
[1]
  BBIt-AV yield after acid/heat treatment relative to unmodified BBIt-AV: improved yields after acid/heat treatment

B10: S65E: BBIt-AV (SEQ ID NO:187) with single substitution S65E (protein)
chain: DDESSKPCCDQCACTKSNPPQCRCSDMRLNSCHSACKSCACYNLYGWTCFCVDITDFCYEPCKPEE
modifications: synthetic BBIt-AV sequence
[1]
  BBIt-AV yield after acid/heat treatment relative to unmodified BBIt-AV: improved yields after acid/heat treatment

B11: I54T: BBIt-AV (SEQ ID NO:187) with single substitution I54T (protein)
chain: DDESSKPCCDQCACTKSNPPQCRCSDMRLNSCHSACKSCACYNLYGWTCFCVDTTDFCYEPCKPSE
modifications: synthetic BBIt-AV sequence
[2]
  relative activity of the amino acid substitution (BBI:BCE activity ratio vs BBIt-AV), amino acid present in BBIsb3-AV: T (−)****

B12: Q11G: BBIt-AV (SEQ ID NO:187) with single substitution Q11G (protein)
chain: DDESSKPCCDGCACTKSNPPQCRCSDMRLNSCHSACKSCACYNLYGWTCFCVDITDFCYEPCKPSE
modifications: synthetic BBIt-AV sequence
[1]
  BBIt-AV yield after acid/heat treatment relative to unmodified BBIt-AV: improved yields after acid/heat treatment

B13: I54M: BBIt-AV (SEQ ID NO:187) with single substitution I54M (protein)
chain: DDESSKPCCDQCACTKSNPPQCRCSDMRLNSCHSACKSCACYNLYGWTCFCVDMTDFCYEPCKPSE
modifications: synthetic BBIt-AV sequence
[2]
  relative activity of the amino acid substitution (BBI:BCE activity ratio vs BBIt-AV), amino acid present in BBIdb-AV: M (−)

B14: F50V: BBIt-AV (SEQ ID NO:187) with single substitution F50V (protein)
chain: DDESSKPCCDQCACTKSNPPQCRCSDMRLNSCHSACKSCACYNLYGWTCVCVDITDFCYEPCKPSE
modifications: synthetic BBIt-AV sequence
[2]
  relative activity of the amino acid substitution (BBI:BCE activity ratio vs BBIt-AV), amino acid present in BBIdb-AV: V (+)
